We go through 1 molecule from article PMC6254012, “AP2/ERF Family Transcription Factors ORA59 and RAP2.3 Interact in the Nucleus and Function Together in Ethylene Responses” (Frontiers in Plant Science, 2018).

For this experiment, the target named is T1, His-tagged RAP2.3 (RAP2.3-His) (Arabidopsis thaliana, UniProt P42736 1-248).
T1 construct: RAP2.3 (related to AP2.3), Arabidopsis thaliana; not shown: His, C-terminal, kept
The experiment in a line: pull-down; GST or ORA59-GST (10 μg) on glutathione sepharose 4B beads, RAP2.3-His (10 μg) added for 2 h at 4°C; 25 mM Tris-HCl pH 8.0, 100 mM NaCl, 1% Triton X-100, 1 mM DTT; immunoblot with anti-GST and anti-His. The conditions noted are these: both partners purified. On the technique in general: In western blotting, separated proteins are transferred to a membrane and probed.

T1 sequence (P42736 whole entry): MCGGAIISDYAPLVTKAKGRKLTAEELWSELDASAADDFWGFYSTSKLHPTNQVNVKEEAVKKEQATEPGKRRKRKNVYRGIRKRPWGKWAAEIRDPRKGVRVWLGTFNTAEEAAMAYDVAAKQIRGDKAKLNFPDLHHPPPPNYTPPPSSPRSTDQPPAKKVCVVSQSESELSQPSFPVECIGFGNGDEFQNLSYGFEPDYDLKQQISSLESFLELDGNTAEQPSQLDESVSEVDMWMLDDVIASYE

B1: C-terminal GST-tagged ORA59 (ORA59-GST) (natural protein)
chain: not shown
notes: ORA59 (octadecanoid-responsive arabidopsis 59), Arabidopsis thaliana; not shown: GST, C-terminal, kept
With B1, the binding result is on record as “binds”.
